{
  "source": "paper PMC3999168",
  "data": [
    {"test_system": "LL-37 (native) (human)", "assay": "EMSA", "conditions": "EMSA with 5' 6-FAM PCR products, as previously published; buffer, salt, pH and temperature not in the material", "units": {"Kd": "µM"}, "values": [
      {"substance": "algT (algU) fragment", "Kd": 12.8},
      {"substance": "lecB fragment", "Kd": 12.8},
      {"substance": "mucA fragment", "Kd": 12.8}
    ]}
  ]
}
